Experiments:
[1] = molecular target: GpeC R160A
[2] = molecular target: GpeC F214A
[3] = molecular target: GpeC R152A
[4] = molecular target: GpeC Y163A

catalytic (cyclization) activity of the GpeC mutant relative to the wild type [1]: > 50%
catalytic (cyclization) activity of the GpeC mutant relative to the wild type [2]: > 50%
catalytic (cyclization) activity of the GpeC mutant relative to the wild type [3]: > 50%
catalytic (cyclization) activity of the GpeC mutant relative to the wild type [4]: > 50%
Binder: WFWMLYHHM [SGpeA2 (minimal 9-mer substrate)]

Source: publication doi:10.1101/2024.10.06.616194
